Measured values reported in publication PMC10702835, “Recognition of centromere‐specific histone Cse4 by the inner kinetochore Okp1‐Ame1 complex” (EMBO Reports, 2023).
Where no end group is shown, it is not given here.

What was measured:
Okp1‐Ame1 = experiment: GST pulldown, Okp1-Ame1; assay type: binding, Saccharomyces cerevisiae; conditions: glutathione agarose, 4°C, 1 h, 20 mM Tris, pH 8.5, 200 mM NaCl, 1 mM TCEP; SDS-PAGE
Description: (§1) Figure 3 Biochemical investigation of Okp1‐Ame1‐Cse4^END binding and disruptive point mutations • A GST pulldown assay for Cse4 binding. The indicated COMA complex proteins were tested for their association with immobilized GST‐Cse4^END. • B Fluorescence polarization assay for quantification of Cse4 binding affinities (n = 3 independent replicates). FITC‐labeled Cse4^END peptide was incubated with increasing concentrations of the indicated protein complexes. See also Table 1. • C, D GST pulldown assays as in panel A. Cse4^END and its mutants (L41D, L42D, or L41,42A) were tested in panel C. The indicated Okp1‐Ame1 complexes were tested for their association with GST‐Cse4^END in panel D. Source data are available online for this figure.
(§2) GST‐Cse4^28‐60 was mixed with Okp1‐Ame1, COMA, COMA‐Nkp1‐Nkp2, or Okp1^125‐275 – Ame1^124‐231 and the mixed samples were incubated with glutathione agarose resin at 4°C for 1 h in binding buffer containing 20 mM Tris, pH 8.5, 200 mM NaCl and 1 mM TCEP. Resin was washed at least three times with the same buffer to remove unbound protein, and bound protein then eluted with glutathione. Samples of input and eluate were collected for analysis by SDS–PAGE.

COMA complex = experiment: GST pulldown, COMA; assay type: binding, Saccharomyces cerevisiae; conditions: glutathione agarose, 4°C, 1 h, 20 mM Tris, pH 8.5, 200 mM NaCl, 1 mM TCEP; compared with COMA-Nkp1-Nkp2
Description: as §1, §2

[1] = test system: minimal Okp1‐Ame1 complex (Okp1^125‐275‐Ame1^124‐231); experiment: GST pulldown, minimal Okp1-Ame1; assay type: binding, Saccharomyces cerevisiae; conditions: glutathione agarose, 4°C, 1 h, 20 mM Tris, pH 8.5, 200 mM NaCl, 1 mM TCEP
Description: Figure EV3 Further biochemical characterization of the Okp1‐Ame1‐Cse4^END interaction • Pulldown assay showing binding between the truncated Okp1‐Ame1 complex used for crystallography (Okp1^125‐275l‐Ame1^124‐231) and GST‐Cse4^END. • Recombinant proteins used for pulldowns in Fig 3 were tested for their association with GST to determine the level of non‐specific binding. Results of a GST pulldown assay are shown. • The minimal Okp1‐Ame1 complex used for crystallography was tested for its association with FITC‐Cse4^END in a fluorescence polarization experiment. The measured dissociation constant is ~750 nM (see Materials and Methods; n = 3 independent experiments). • GST‐Cse4^END and its mutants were tested for Okp1‐Ame1 binding. • Full‐length mutant Okp1‐Ame1 complex (EYAA or I195Y as indicated) was tested for its association with FITC‐Cse4^END. • Various Okp1‐Ame1 mutants (indicated above) were tested for binding to GST‐Cse4^END. • Various Okp1‐Ame1 mutants were tested for Cse4^END binding as in panel F. Source data are available online for this figure.
GST‐Cse4^28‐60 was mixed with Okp1‐Ame1, COMA, COMA‐Nkp1‐Nkp2, or Okp1^125‐275 – Ame1^124‐231 and the mixed samples were incubated with glutathione agarose resin at 4°C for 1 h in binding buffer containing 20 mM Tris, pH 8.5, 200 mM NaCl and 1 mM TCEP. […]

COMA‐Nkp1‐Nkp2 complex = experiment: GST pulldown, COMA-Nkp1-Nkp2; assay type: binding, Saccharomyces cerevisiae; conditions: glutathione agarose, 4°C, 1 h, 20 mM Tris, pH 8.5, 200 mM NaCl, 1 mM TCEP; compared with COMA
Description: as §1, §2

[2] = target: T1, Okp1‐Ame1 (WT, full length) with 10 μM Nkp1‐Nkp2 (S. cerevisiae (budding yeast), UniProt P53298 1-406; P38313 1-324; Q12493 1-238; Q06162 1-153); experiment: fluorescence polarisation; as a2 (20 nM FITC‐Cse4^28‐60, full-length Okp1‐Ame1 titrated, 200 mM NaCl) with 10 μM Nkp1‐Nkp2 added in excess; conditions: both partners purified
T1 construct: Okp1, budding yeast, full length; Ame1, budding yeast, full length; Nkp1, budding yeast, full length; Nkp2, budding yeast, full length; the methods call it a titrated complex (Okp1‐Ame1 with Nkp1/2); also called Okp1‐Ame1 W(T) + 10 μM Nkp1‐Nkp2; Okp1‐Ame1 with Nkp1/2; source: E. coli, purified heterodimers Okp1‐Ame1 and Nkp1‐Nkp2, mixed; copies: + + +
T1 sequence (P53298 whole entry, chain 1 of 4): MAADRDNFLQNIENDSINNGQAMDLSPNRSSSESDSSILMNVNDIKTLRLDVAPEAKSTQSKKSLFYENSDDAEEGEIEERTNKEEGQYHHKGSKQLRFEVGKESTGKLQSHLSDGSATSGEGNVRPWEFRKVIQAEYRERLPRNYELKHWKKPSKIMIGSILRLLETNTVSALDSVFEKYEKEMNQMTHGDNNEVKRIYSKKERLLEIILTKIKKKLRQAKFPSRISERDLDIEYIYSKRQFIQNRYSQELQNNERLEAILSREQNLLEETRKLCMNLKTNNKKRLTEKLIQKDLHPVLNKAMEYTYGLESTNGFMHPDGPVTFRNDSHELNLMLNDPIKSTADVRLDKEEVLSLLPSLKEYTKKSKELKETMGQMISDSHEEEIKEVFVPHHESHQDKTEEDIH
T1 sequence (P38313 whole entry, chain 2 of 4): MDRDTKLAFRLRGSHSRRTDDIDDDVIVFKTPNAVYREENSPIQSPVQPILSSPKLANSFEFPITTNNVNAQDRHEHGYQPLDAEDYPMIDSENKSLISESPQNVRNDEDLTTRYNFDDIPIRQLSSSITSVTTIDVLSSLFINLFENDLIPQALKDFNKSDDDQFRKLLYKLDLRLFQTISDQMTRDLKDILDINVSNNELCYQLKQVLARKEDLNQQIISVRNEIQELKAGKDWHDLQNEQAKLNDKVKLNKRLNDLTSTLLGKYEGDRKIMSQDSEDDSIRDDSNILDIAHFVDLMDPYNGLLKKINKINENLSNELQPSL
T1 sequence (Q12493 whole entry, chain 3 of 4): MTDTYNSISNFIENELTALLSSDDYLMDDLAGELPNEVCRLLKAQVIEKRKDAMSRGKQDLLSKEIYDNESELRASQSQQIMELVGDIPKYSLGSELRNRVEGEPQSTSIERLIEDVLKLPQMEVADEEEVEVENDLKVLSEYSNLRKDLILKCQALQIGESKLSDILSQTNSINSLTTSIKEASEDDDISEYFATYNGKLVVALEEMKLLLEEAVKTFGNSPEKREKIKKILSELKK
T1 sequence (Q06162 whole entry, chain 4 of 4): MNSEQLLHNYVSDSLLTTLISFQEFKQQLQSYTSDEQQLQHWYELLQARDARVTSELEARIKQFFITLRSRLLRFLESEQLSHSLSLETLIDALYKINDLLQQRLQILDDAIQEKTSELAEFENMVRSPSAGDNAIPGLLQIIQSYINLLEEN

[3] = target: T2, Okp1‐Ame1 heterodimer, full length, wild type (S. cerevisiae (budding yeast), UniProt P53298 1-406; P38313 1-324); experiment: fluorescence polarisation; 20 nM FITC‐Cse4^28‐60, full-length Okp1‐Ame1 titrated; 100 mM HEPES pH 7.5, 200 mM NaCl, 1 mM TCEP; 30 min at room temperature; one site – total binding fit; triplicate; conditions: both partners purified
T2 construct: Okp1, inner kinetochore (Ctf19c) protein of budding yeast, full length; Ame1, inner kinetochore (Ctf19c) protein of budding yeast, full length; also called Okp1‐Ame1 (WT); FL; copies: 1 + 1
T2 sequence (P53298 whole entry, chain 1 of 2): as the sequence (P53298 whole entry, chain 1 of 4) above
T2 sequence (P38313 whole entry, chain 2 of 2): as the sequence (P38313 whole entry, chain 2 of 4) above

[4] = target: T3, Okp1‐Ame1(I195Y), full length (S. cerevisiae (budding yeast), UniProt P53298 1-406; P38313 1-324, I195Y); experiment: as above; conditions: both partners purified
T3 construct: Okp1, budding yeast, full length; Ame1, budding yeast, full length, with I195Y; source: recombinant; copies: 1 + 1
T3 sequence (P53298 whole entry, chain 1 of 2): as the sequence (P53298 whole entry, chain 1 of 4) above
T3 sequence (P38313 whole entry I195Y, chain 2 of 2): as the sequence (P38313 whole entry, chain 2 of 4) above, with I195Y counted along it

[5] = target: T4, Okp1(EYAA)‐Ame1, full length (S. cerevisiae (budding yeast), UniProt P53298 1-406; P38313 1-324, E235A | Y238A); experiment: as above; conditions: both partners purified
T4 construct: Okp1, budding yeast, full length, with E235A and Y238A; Ame1, budding yeast, full length; also called okp1‐E235,Y238A; okp1‐E235A,Y238A; source: recombinant; copies: 1 + 1
T4 sequence (P53298 whole entry E235A/Y238A, chain 1 of 2): as the sequence (P53298 whole entry, chain 1 of 4) above, with E235A, Y238A counted along it
T4 sequence (P38313 whole entry, chain 2 of 2): as the sequence (P38313 whole entry, chain 2 of 4) above

[6] = target: T5, minimal Okp1^125‐275 – Ame1^124‐231 heterodimer (S. cerevisiae (budding yeast), UniProt P53298 125-275; P38313 124-231); experiment: fluorescence polarisation; 20 nM FITC‐Cse4^28‐60, truncated Okp1‐Ame1 titrated; 100 mM HEPES pH 7.5, 600 mM NaCl, 1 mM TCEP; 30 min at room temperature; 20 μM points left out of the fit; conditions: both partners purified
T5 construct: Okp1, budding yeast, residues 125-275; Ame1, budding yeast, residues 124-231; no tag; also called truncated Okp1‐Ame1 complex; minimal Okp1‐Ame1 complex used for crystallography; source: E. coli Rosetta 2 (pLysS), pet-Duet co-expression, purified (TALON, TEV cleavage, ion exchange, gel filtration); not shown: His6, N-terminal, cleaved; copies: 1 + 1
T5 sequence (P53298 125-275, chain 1 of 2): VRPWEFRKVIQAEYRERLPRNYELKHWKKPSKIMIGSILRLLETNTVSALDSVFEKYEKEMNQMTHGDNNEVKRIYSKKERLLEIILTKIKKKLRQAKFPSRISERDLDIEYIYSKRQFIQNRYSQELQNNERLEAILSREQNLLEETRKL
T5 sequence (P38313 124-231, chain 2 of 2): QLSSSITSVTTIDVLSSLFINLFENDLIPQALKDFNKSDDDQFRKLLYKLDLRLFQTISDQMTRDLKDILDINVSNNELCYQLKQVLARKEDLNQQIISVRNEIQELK

Okp1^125‐275 = target: T6, Okp1^125‐275 (S. cerevisiae (budding yeast), UniProt P53298 125-275); experiment: crystal structure; Okp1^125‐275 – Ame1^124‐231 mixed with Cse4^28‐60 peptide 1:1.3; hanging drop, 18°C, 19% PEG 8000, 0.55 M lithium sulfate; 1.8 Å, space group P4(2)2(1)2; conditions: both partners purified
T6 construct: Okp1, budding yeast, residues 125-275; Single chain of m2, written for the pairwise contacts of the crystal structure; also called Okp1 (chain of the crystallised minimal heterodimer); source: E. coli Rosetta 2 (pLysS), co-expressed with Ame1^124‐231, purified; not shown: His6, N-terminal, cleaved
T6 sequence (P53298 125-275): as the sequence (P53298 125-275, chain 1 of 2) above

[7] = target: T5, minimal Okp1^125‐275 – Ame1^124‐231 …; experiment: as above; conditions: both partners purified
Ame1^124‐231 = target: T7, Ame1^124‐231 (S. cerevisiae (budding yeast), UniProt P38313 124-231); experiment: as above; conditions: both partners purified
T7 construct: Ame1, budding yeast, residues 124-231; no tag; Single chain of m2, written for the pairwise contacts of the crystal structure; also called Ame1 (chain of the crystallised minimal heterodimer); source: E. coli Rosetta 2 (pLysS), co-expressed with Okp1^125‐275, purified
T7 sequence (P38313 124-231): as the sequence (P38313 124-231, chain 2 of 2) above

[8] = target: T5, minimal Okp1^125‐275 – Ame1^124‐231 …; experiment: pull-down; GST‐Cse4^28‐60 (or GST) mixed with prey, held on glutathione agarose resin, 4°C 1 h, 20 mM Tris pH 8.5, 200 mM NaCl, 1 mM TCEP; eluted with glutathione; SDS–PAGE; conditions: both partners purified
[9] = target: T2, Okp1‐Ame1 heterodimer, full length, …; experiment: as above; conditions: both partners purified
[10] = target: T8, six‐protein COMA‐Nkp1‐Nkp2 complex (S. cerevisiae (budding yeast), UniProt P53298 1-406; P38313 1-324; Q02732 1-369; Q06675 1-368; Q12493 1-238; Q06162 …); experiment: as above; conditions: both partners purified
T8 construct: Okp1, budding yeast, full length; Ame1, budding yeast, full length; Ctf19, budding yeast, full length; Mcm21, budding yeast, full length; Nkp1, budding yeast, full length; Nkp2, budding yeast, full length; constructs as in Hinshaw & Harrison 2019; source: E. coli, purified heterodimers Okp1‐Ame1, Ctf19‐Mcm21 and Nkp1‐Nkp2; copies: + + + + +

[11] = target: T9, four‐protein COMA complex (Ctf19‐Okp1‐Mcm21‐Ame1) (S. cerevisiae (budding yeast), UniProt P53298 1-406; P38313 1-324; Q02732 1-369; Q06675 1-368); experiment: as above; conditions: both partners purified
T9 construct: Okp1, budding yeast, full length; Ame1, budding yeast, full length; Ctf19, budding yeast, full length; Mcm21, budding yeast, full length; constructs as in Hinshaw & Harrison 2019; source: E. coli, purified heterodimers Okp1‐Ame1 and Ctf19‐Mcm21; copies: + + +
T9 sequence (P53298 whole entry, chain 1 of 4): as the sequence (P53298 whole entry, chain 1 of 4) above
T9 sequence (P38313 whole entry, chain 2 of 4): as the sequence (P38313 whole entry, chain 2 of 4) above
T9 sequence (Q02732 whole entry, chain 3 of 4): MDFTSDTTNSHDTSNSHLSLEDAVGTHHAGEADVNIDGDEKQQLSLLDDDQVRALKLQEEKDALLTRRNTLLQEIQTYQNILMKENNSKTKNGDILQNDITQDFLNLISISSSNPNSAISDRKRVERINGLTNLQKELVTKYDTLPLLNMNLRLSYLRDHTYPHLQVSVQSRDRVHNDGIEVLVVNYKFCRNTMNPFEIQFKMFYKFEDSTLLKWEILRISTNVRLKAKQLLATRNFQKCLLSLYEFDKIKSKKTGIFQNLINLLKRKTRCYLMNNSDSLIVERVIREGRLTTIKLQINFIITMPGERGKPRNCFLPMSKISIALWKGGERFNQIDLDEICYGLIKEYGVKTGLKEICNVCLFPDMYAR
T9 sequence (Q06675 whole entry, chain 4 of 4): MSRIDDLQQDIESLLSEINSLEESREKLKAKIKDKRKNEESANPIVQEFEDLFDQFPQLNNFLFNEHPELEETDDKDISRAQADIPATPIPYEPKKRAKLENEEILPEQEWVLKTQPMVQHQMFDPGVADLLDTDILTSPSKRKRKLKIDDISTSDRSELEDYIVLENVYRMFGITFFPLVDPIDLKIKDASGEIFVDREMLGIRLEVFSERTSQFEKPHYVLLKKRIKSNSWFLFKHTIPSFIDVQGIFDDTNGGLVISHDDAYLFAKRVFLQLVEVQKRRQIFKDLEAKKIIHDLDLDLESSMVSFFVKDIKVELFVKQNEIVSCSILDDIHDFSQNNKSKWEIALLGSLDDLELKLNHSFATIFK

GST‐Cse4^END: Cse4 residues 28–60 with TEV‐cleavable N‐terminal Glutathione S‐transferase tag (AGDQQSINDRALSLLQRTRATKNLFPRREERRR; not fully specified (N-terminus))
binding in GST pulldown (Okp1‐Ame1): bound Okp1‐Ame1 | binding in GST pulldown (COMA complex): equally well | binding in GST pulldown [1]: preserved GST‐Cse4^END binding | binding in GST pulldown (COMA‐Nkp1‐Nkp2 complex): equally well

cse4‐L41,42A: Cse4^END L41,42A mutant, GST fusion (AGDQQSINDRALSAAQRTRATKNLFPRREERRR; not fully specified (N-terminus))
binding in GST pulldown (Okp1‐Ame1): failed to bind

cse4‐L41D: Cse4^END L41D mutant, GST fusion (GST-TEV-Cse4^28-60(L41D)) (AGDQQSINDRALSDLQRTRATKNLFPRREERRR; not fully specified (N-terminus))
binding in GST pulldown (Okp1‐Ame1): failed to bind

cse4‐L42D: Cse4^END L42D mutant, GST fusion (GST-TEV-Cse4^28-60(L42D)) (AGDQQSINDRALSLDQRTRATKNLFPRREERRR; not fully specified (N-terminus))
binding in GST pulldown (Okp1‐Ame1): failed to bind

B1: FITC‐Cse4^28‐60 peptide (peptide, UniProt P36012 28-60, looked up)
peptide: AGDQQSINDRALSLLQRTRATKNLFPRREERRR
modifications: not fully specified (N-terminus); also: FITC label, position not given here
notes: Cse4, S. cerevisiae, residues 28-60; also called FITC‐Cse4^END; FITC‐labeled Cse4^END peptide; source: synthetic peptide (Tufts University Core Facility)
Kd [2]: 0.133 µM | Kd [3]: 0.152 µM | Kd [4]: > 3 µM | Kd [5]: > 3 µM | Kd [6]: ~0.75 µM

B2: Cse4^28‐60 peptide (Cse4^END peptide) (peptide, UniProt P36012 28-60, looked up)
peptide: B1 peptide
notes: Cse4, S. cerevisiae, residues 28-60 (residues 34-46 ordered in the crystal); also called minimal Cse4^END peptide; source: synthetic peptide (Tufts University Core facility)
binding result (Okp1^125‐275): binds | binding result [7]: binds | binding result (Ame1^124‐231): binds

B3: GST‐Cse4^END (GST fusion of Cse4 residues 28–60) (domain or fragment, S. cerevisiae, UniProt P36012 28-60, looked up)
chain: B1 peptide
notes: Cse4, centromeric histone H3 variant of S. cerevisiae, Essential N-terminal Domain, residues 28-60; The GST tag is TEV-cleavable (pLIC vector) but was kept for the pull-downs; also called GST‐Cse4^28‐60; source: E. coli Rosetta 2 (pLysS), purified (glutathione agarose); not shown: GST, N-terminal, kept
binding result [8]: binds | binding result [9]: binds | binding result [10]: binds | binding result [11]: binds
